Earlier results, collected in PMC12198371 (Nature Communications, 2025).

Target: α-chymotrypsin
Details: natural inhibitor, Fig. 9d

B1: BBI G.m.: Bowman–Birk inhibitor (BBI) from soybean Glycine max (71 amino acids) (protein, UniProt P01055 40-110, looked up)
Bowman-Birk type proteinase …: DDESSKPCCDQCACTKSNPPQCRCSDMRLNSCHSACKSCICALSYPAQCFCVDITDFCYEPCKPSEDDKEN
For B1, the Ki is listed as 6 nM.
